{"source": "IntAct's records for PubMed 26235031", "parents": {"B1": {"name": "Leucine-rich repeat transmembrane protein FLRT3 (Mus musculus), Q8BGT1 (parent)", "chain": "MISPAWSLFLIGTKIGLFFQVAPLSVVAKSCPSVCRCDAGFIYCNDRSLTSIPVGIPEDATTLYLQNNQINNVGIPSDLKNLLKVQRIYLYHNSLDEFPTNLPKYVKELHLQENNIRTITYDSLSKIPYLEELHLDDNSVSAVSIEEGAFRDSNYLRLLFLSRNHLSTIPGGLPRTIEELRLDDNRISTISSPSLHGLTSLKRLVLDGNLLNNHGLGDKVFFNLVNLTELSLVRNSLTAAPVNLPGTSLRKLYLQDNHINRVPPNAFSYLRQLYRLDMSNNNLSNLPQGIFDDLDNITQLILRNNPWYCGCKMKWVRDWLQSLPVKVNVRGLMCQAPEKVRGMAIKDLSAELFDCKDSGIVSTIQITTAIPNTAYPAQGQWPAPVTKQPDIKNPKLIKDQRTTGSPSRKTILITVKSVTPDTIHISWRLALPMTALRLSWLKLGHSPAFGSITETIVTGERSEYLVTALEPESPYRVCMVPMETSNLYLFDETPVCIETQTAPLRMYNPTTTLNREQEKEPYKNPNLPLAAIIGGAVALVSIALLALVCWYVHRNGSLFSRNCAYSKGRRRKDDYAEAGTKKDNSILEIRETSFQMLPISNEPISKEEFVIHTIFPPNGMNLYKNNLSESSSNRSYRDSGIPDSDHSHS"}, "B2": {"name": "Adhesion G protein-coupled receptor L3 (Mus musculus), Q80TS3 (parent)", "chain": "MWPPQLLILTMLLAPVVHGGKHNERHPALAAPLRHAERSPGGALPPRHLLQQPAAERSTAHRGQGPRGAARGVRGPGAPGAQIAAQAFSRAPIPMAVVRRELSCESYPIELRCPGTDVIMIESANYGRTDDKICDSDPAQMENIRCYLPDAYKIMSQRCNNRTQCAVVAGPDVFPDPCPGTYKYLEVQYECVPYKVEQKVFLCPGLLKGVYQSEHLFESDHQSGAWCKDPLQASDKIYYMPWTPYRTDTLTEYSSKDDFIAGRPTTTYKLPHRVDGTGFVVYDGALFFNKERTRNIVKFDLRTRIKSGEAIIANANYHDTSPYRWGGKSDIDLAVDENGLWVIYATEQNNGKIVISQLNPYTLRIEGTWDTAYDKRSASNAFMICGILYVVKSVYEDDDNEATGNKIDYIYNTDQSKDSLVDVPFPNSYQYIAAVDYNPRDNLLYVWNNYHVVKYSLDFGPLDSRSGPVHHGQVSYISPPIHLDSELERPPVRGISTTGSLGMGSTTTSTTLRTTTWNIGRSTTASLPGRRNRSTSTPSPAVEVLDDVTTHLPSAASQIPAMEESCEAVEAREIMWFKTRQGQVAKQPCPAGTIGVSTYLCLAPDGIWDPQGPDLSNCSSPWVNHITQKLKSGETAANIARELAEQTRNHLNAGDITYSVRAMDQLVGLLDVQLRNLTPGGKDSAARSLNKLQKRERSCRAYVQAMVETVNNLLQPQALNAWRDLTTSDQLRAATMLLDTVEESAFVLADNLLKTDIVRENTDNIQLEVARLSTEGNLEDLKFPENMGHGSTIQLSANTLKQNGRNGEIRVAFVLYNNLGPYLSTENASMKLGTEAMSTNHSVIVNSPVITAAINKEFSNKVYLADPVVFTVKHIKQSEENFNPNCSFWSYSKRTMTGYWSTQGCRLLTTNKTHTTCSCNHLTNFAVLMAHVEVKHSDAVHDLLLDVITWVGILLSLVCLLICIFTFCFFRGLQSDRNTIHKNLCISLFVAELLFLIGINRTDQPIACAVFAALLHFFFLAAFTWMFLEGVQLYIMLVEVFESEHSRRKYFYLVGYGMPALIVAVSAAVDYRSYGTDKVCWLRLDTYFIWSFIGPATLIIMLNVIFLGIALYKMFHHTAILKPESGCLDNINYEDNRPFIKSWVIGAIALLCLLGLTWAFGLMYINESTVIMAYLFTIFNSLQGMFIFIFHCVLQKKVRKEYGKCLRTHCCSGKSTESSIGSGKTSGSRTPGRYSTGSQSRIRRMWNDTVRKQSESSFITGDINSSASLNREGLLNNARDTSVMDTLPLNGNHGNSYSIAGGEYLSNCVQIIDRGYNHNETALEKKILKELTSNYIPSYLNNHERSSEQNRNMMNKLVNNLGSGSEDDAIVLDDAASFNHEESLGLELIHEESDAPLLPPRVYSTDNHQPHHYSRRRFPQDHSESFFPLLTDEHTEDLQSPHRDSLYTSMPALAGVPAADSVTTSTQTEAAAAKGGDAEDVYYKSMPNLGSRNHVHPLHAYYQLGRGSSDGFIVPPNKDGASPEGTSKGPAHLVTSL", "partner": "B1 chain"}}, "data": [{"variants_of": "B1", "settings": "with agrl3_mouse Adgrl3, Q80TS3", "values": [{"variant": "F160N", "effect of a mutation on the interaction": "disrupting interaction strength"}, {"variant": "F160A", "effect of a mutation on the interaction": "decreasing interaction strength"}, {"variant": "R117T", "effect of a mutation on the interaction": "decreasing interaction strength"}]}, {"variants_of": "B2", "settings": "with flrt3_mouse Flrt3, Q8BGT1", "values": [{"variant": "D332A", "effect of a mutation on the interaction": "decreasing interaction strength"}, {"variant": "Y323A", "effect of a mutation on the interaction": "disrupting interaction strength"}]}]}
